This passage reports pKd results from article PMC9482650, “Quantitative fragmentomics allow affinity mapping of interactomes” (Nature Communications, 2022).

Common to all, as to experiment: holdup assay
Holding throughout (design): key: below the threshold = too weak to quantify, mostly under pKd 3.1 to 4
Common to all, as to conditions: plain residues with an end cap or a label only (N-terminal biotin on a linker: ttds)

Assay [1] concerns the target RIMS1, Q86UR5.
In assay [2] the target is MAGI3_6, Q5TCQ9.
MAGI3_6, Q5TCQ9, sequence (Q5TCQ9 1014-1103): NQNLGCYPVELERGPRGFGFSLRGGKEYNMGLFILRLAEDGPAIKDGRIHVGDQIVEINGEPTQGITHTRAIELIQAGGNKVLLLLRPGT
Assay [3] has as its target PDLIM4, P50479.
The target of assay [4] is PARD3B_3, Q8TEW8.
PARD3B_3, Q8TEW8, sequence (Q8TEW8 490-594): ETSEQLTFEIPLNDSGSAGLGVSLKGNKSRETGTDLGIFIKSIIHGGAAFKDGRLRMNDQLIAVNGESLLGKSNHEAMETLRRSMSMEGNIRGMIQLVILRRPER
The target in assay [5] is T1, NHERF1_1, O14745.
T1 sequence (O14745 9-104, limits assumed, looked up): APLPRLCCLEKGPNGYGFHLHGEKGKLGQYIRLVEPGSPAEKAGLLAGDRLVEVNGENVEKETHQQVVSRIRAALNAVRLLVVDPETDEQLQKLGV

In assay [6] the target is T2, PDZD2_4, O15018.
T2 sequence (O15018 723-823, limits assumed, looked up): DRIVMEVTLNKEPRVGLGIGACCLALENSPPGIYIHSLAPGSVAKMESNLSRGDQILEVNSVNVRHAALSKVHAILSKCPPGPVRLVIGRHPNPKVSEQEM

The target in assay [7] is MAGI1_6, Q96QZ7.
MAGI1_6, Q96QZ7, sequence (Q96QZ7 1146-1238): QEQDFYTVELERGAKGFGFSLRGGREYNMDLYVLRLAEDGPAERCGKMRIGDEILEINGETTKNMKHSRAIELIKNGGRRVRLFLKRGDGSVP
Assay [8] has as its target MAGI1_4, Q96QZ7.
The target in assay [9] is T3, PDZD7_2, Q9H5P4.
T3 sequence (Q9H5P4 205-303, limits assumed, looked up): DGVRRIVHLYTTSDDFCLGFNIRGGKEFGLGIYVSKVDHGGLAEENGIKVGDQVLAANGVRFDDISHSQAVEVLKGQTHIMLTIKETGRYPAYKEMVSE

In assay [10] the target is T4, MPP1, Q00013.
T4 sequence (Q00013 66-162, limits assumed, looked up): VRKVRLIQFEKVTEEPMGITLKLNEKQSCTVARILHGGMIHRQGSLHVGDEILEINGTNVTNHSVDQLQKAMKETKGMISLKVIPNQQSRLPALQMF

Assay [11] has as its target T5, MPDZ_7, O75970.
T5 sequence (O75970 1146-1253, limits assumed, looked up): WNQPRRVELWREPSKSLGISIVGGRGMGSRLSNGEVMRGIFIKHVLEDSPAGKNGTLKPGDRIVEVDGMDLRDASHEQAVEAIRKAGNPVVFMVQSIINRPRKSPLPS

Assay [12] addresses T6, MPDZ_11, O75970.
T6 sequence (O75970 1720-1817, limits assumed, looked up): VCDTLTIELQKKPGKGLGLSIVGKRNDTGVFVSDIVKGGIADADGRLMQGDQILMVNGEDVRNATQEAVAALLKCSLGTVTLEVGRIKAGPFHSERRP

Assay [13] concerns the target T7, SIPA1L3, O60292.
T7 sequence (O60292 961-1052, limits assumed, looked up): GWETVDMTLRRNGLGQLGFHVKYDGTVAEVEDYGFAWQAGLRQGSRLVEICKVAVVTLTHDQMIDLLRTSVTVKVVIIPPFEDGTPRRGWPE

The target in assay [14] is T8, PDZD2_5, O15018.
T8 sequence (O15018 2617-2716, limits assumed, looked up): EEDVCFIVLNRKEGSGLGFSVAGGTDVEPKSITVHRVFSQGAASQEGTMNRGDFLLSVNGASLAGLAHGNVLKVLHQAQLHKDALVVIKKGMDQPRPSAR

Assay [15] has as its target AHNAK2, Q8IVF2.
The target in assay [16] is SCRIB_4, Q14160.
SCRIB_4, Q14160, sequence (Q14160 1095-1204): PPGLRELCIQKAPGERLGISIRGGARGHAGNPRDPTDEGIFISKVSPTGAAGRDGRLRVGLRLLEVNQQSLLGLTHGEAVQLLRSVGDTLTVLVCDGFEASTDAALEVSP
The target of assay [17] is T9, PDLIM3, Q53GG5.
T9 sequence (Q53GG5 1-94, limits assumed, looked up): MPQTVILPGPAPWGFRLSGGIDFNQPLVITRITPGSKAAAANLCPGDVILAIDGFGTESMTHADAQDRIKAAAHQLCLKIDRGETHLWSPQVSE

In assay [18] the target is T10, PDZD8, Q8NEN9.
T10 sequence (Q8NEN9 361-459, limits assumed, looked up): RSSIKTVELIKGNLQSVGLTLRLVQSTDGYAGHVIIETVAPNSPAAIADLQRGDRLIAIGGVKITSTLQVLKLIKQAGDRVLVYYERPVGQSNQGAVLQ

In assay [19] the target is RIMS2, Q9UQ26.
RIMS2, Q9UQ26, sequence (Q9UQ26 637-758): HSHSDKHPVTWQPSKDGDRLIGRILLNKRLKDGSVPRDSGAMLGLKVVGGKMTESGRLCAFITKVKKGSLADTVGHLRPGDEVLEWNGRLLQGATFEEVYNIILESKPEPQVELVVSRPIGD
Assay [20] deals with T11, GIPC1, O14908.
T11 sequence (O14908 128-223, limits assumed, looked up): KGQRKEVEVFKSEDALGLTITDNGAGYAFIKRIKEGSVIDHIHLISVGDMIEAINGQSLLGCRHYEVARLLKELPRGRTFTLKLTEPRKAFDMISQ

In assay [21] the target is T12, SHANK2, Q9UPX8.
T12 sequence (Q9UPX8 621-730, limits assumed, looked up): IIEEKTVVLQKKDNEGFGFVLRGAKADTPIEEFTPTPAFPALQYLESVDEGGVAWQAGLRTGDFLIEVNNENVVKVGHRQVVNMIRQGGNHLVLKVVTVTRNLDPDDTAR

Assay [22] concerns the target T13, USH1C_1, Q9Y6N9.
T13 sequence (Q9Y6N9 82-179, limits assumed, looked up): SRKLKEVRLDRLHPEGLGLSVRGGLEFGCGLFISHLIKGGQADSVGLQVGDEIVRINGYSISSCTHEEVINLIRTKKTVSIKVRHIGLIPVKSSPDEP

Assay [23] has as its target T14, SNTB2, Q13425.
T14 sequence (Q13425 110-208, limits assumed, looked up): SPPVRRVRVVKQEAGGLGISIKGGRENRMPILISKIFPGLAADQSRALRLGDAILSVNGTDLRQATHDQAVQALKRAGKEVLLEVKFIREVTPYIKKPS

PDLIM4, P50479, sequence (P50479 1-83): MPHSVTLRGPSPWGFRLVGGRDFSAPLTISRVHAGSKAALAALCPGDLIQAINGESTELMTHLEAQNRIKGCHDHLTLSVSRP
RIMS1, Q86UR5, sequence (Q86UR5 584-692): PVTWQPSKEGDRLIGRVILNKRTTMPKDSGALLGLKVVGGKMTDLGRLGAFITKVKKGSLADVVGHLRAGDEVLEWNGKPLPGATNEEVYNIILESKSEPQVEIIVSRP
AHNAK2, Q8IVF2, sequence (Q8IVF2 108-193): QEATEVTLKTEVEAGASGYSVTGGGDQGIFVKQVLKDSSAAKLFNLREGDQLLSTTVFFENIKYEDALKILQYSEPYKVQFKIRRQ
MAGI1_4, Q96QZ7, sequence (Q96QZ7 other isoform, or with tags, fused parts or gaps): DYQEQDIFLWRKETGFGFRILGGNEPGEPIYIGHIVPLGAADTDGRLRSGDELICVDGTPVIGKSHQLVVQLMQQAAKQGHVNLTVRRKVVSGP

Usually pKd stands for −log10 of the Kd, conventionally taken in molar units. In the case of RRVRKLPSTTL [RPS6KA1, Q15418], the pKd result in [1], in [2], in [3], in assay [4], in assay [5] and in [6] was “below the threshold” in each case. Further, the pKd entry is “below the threshold” in assay [7]; “below the threshold” in assay [8]; “below the threshold” in assay [9]; “below the threshold” in assay [10]; “below the threshold” in [11]; 3.58 in assay [12]. In addition, the pKd entry in assay [13], in assay [14], in [15], in [16], in assay [17] and in assay [18] was “below the threshold” each time. Further, the pKd entry in assay [19] and in assay [20] was “below the threshold” each time.

Consider CLDTSRETDL [KCNA5, P22460], for which the pKd result in assay [1] is “below the threshold”; in [2], 4.34; in assay [3] it was 4.26; in [4] it was “below the threshold”; in assay [5], “below the threshold”; in [6], “below the threshold”. In addition, the pKd is 4.55 in assay [7]; “below the threshold” in assay [8]; “below the threshold” in assay [9]; “below the threshold” in assay [10]; “below the threshold” in assay [21]; “below the threshold” in [11]. For the same molecule, the pKd entry in [12], in assay [13], in [14], in assay [15], in assay [16] and in [17] was “below the threshold” throughout. Moreover, the pKd entry is “below the threshold” in assay [18]; “below the threshold” in [19]; “below the threshold” in assay [22]; “below the threshold” in assay [20]; 4.91 in assay [23].

In the case of SEKHFRETEV [HTLV1-TAX1, P03409], the negative logarithm of the Kd (pKd) result is “below the threshold” in assay [1]; 4.54 in assay [2]; 4.54 in assay [3]; “below the threshold” in [4]; “below the threshold” in [5]; “below the threshold” in [6]. Further, the pKd in assay [7] was 4.41; in assay [8], 4.28; in assay [9], 4.05; in [10] it was “below the threshold”; in assay [21] it was “below the threshold”; in [11] it was 4.44. Also, the pKd in assay [12] was 4.25; in [13], “below the threshold”; in [14], 4.16; in assay [15], “below the threshold”; in assay [16] it was 4.43; in assay [17] it was 4.12. In addition, the pKd result in assay [18] was “below the threshold”; in [19], “below the threshold”; in assay [22], “below the threshold”; in assay [20], 4.86.

As for DEDQHTQITKV [PTEN, P60484], the pKd entry in [2] was “below the threshold”; in assay [3], “below the threshold”; in assay [4] it was “below the threshold”; in assay [5] it was 4.46; in assay [6] it was “below the threshold”; in assay [7], “below the threshold”. Besides, the pKd entry was “below the threshold” in assay [9]; “below the threshold” in assay [10]; “below the threshold” in assay [21]; 3.71 in assay [11]; “below the threshold” in assay [12]; “below the threshold” in assay [14]. The pKd result in assay [15], in assay [16], in assay [17], in assay [18], in assay [22] and in assay [20] was “below the threshold” throughout. For the same molecule, in assay [23], the negative logarithm of the Kd (pKd) result is recorded as “below the threshold”.

In the case of TGDTLEKFVEGL [CBP, Q92793], the pKd result in [2] is “below the threshold”; in assay [3], “below the threshold”; in [4], “below the threshold”; in [5], 4.09; in assay [6], “below the threshold”; in assay [7] it was “below the threshold”. The pKd result is “below the threshold” in assay [9]; “below the threshold” in assay [10]; “below the threshold” in [21]; “below the threshold” in [11]; “below the threshold” in assay [12]; 3.8 in assay [14]. In addition, the pKd entry in assay [15], in [16], in [17], in assay [18], in [22] and in assay [20] was “below the threshold” in each case. In addition, the pKd result in assay [23] is “below the threshold”.
